Tests used:
potato lectin (Sigma) [1] = molecular target: T1, potato lectin (Sigma) (potato, UniProt Q9S8M0 23-323); experiment: microcapsule retention; L: amine capsules, BS3 two-step, 0.1 ug VHH/cm2; potato lectin coat 10 ug/ml; 100% coverage
T1 construct: Bought glycoprotein, coated on ELISA plates
T1 sequence (looked up): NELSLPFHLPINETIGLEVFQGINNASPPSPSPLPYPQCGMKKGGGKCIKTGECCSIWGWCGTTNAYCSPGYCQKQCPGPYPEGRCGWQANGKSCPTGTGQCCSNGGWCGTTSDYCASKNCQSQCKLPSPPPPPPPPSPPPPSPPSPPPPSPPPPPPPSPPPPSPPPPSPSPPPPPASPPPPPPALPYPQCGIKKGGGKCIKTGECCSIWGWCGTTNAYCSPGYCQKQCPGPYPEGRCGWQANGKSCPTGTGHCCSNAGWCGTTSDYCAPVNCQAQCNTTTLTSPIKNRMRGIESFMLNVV

potato lectin (Sigma) [2] = molecular target: T1, potato lectin (Sigma); experiment: microcapsule retention; H: amine capsules, BS3 one-step, 0.1 ug VHH/cm2; potato lectin coat 10 ug/ml; 10% coverage
potato lectin (Sigma) [3] = molecular target: T1, potato lectin (Sigma); experiment: microcapsule retention; G: amine capsules, BS3 one-step, 1 ug VHH/cm2; potato lectin coat 1 ug/ml; 100% coverage
potato lectin (Sigma) [4] = molecular target: T1, potato lectin (Sigma); experiment: microcapsule retention; G: amine capsules, BS3 one-step, 1 ug VHH/cm2; potato lectin coat 100 ug/ml; 100% coverage
potato lectin (Sigma) [5] = molecular target: T1, potato lectin (Sigma); experiment: microcapsule retention; K: amine capsules, BS3 two-step, 1 ug VHH/cm2; potato lectin coat 10 ug/ml; 100% coverage
[6] = test system: gum arabic or potato lectin; experiment: Lambda cyhalothrin amounts in wells with bound microcapsules (GC/MS-MS); assay type: binding; conditions: VHH coupled to lambda cyhalothrin microcapsules
Description: In another experiment lambda cyhalothrin amounts were also determined analytically. 100 μl/well aceton was added to washed wells with bound microcapsules and transferred to glass vials with 10 ml of hexane containing 0.05% triphenylphosphate as internal standard. The amount of lambda cyhalothrin was determined by GC/MS-MS analysis in comparison with calibration solutions. Controls for lambda cyhalothrin microcapsules included blank microcapsules to which no VHH were coupled and microcapsules to which unrelated VHH were coupled. Controls also included wells to which no gum arabic or potato lectin was coated.

unrelated antigens = experiment: VHH-coupled lambda-cyhalothrin microcapsules retained on wells coated with unrelated antigen; 20% surface coverage
potato leaf discs = experiment: Leaf disc binding assay with VHH-coupled Uvitex microcapsules; set-up: species or system potato (variety Désirée)
Description: A leaf disc binding assay was used to evaluate the interaction of VHH-coupled microcapsules with potato, grass and azalea leaves. ø 8 mm leaf discs were sampled from the leaves of potato pot plants (variety Désirée), from the leaves of greenhouse-grown Lollium perenne and from the leaves of azalea pot plants. Leaf discs were washed three times with PBS. Microcapsules containing lambda cyhalothrin or Uvitex were diluted to appropriate densities in 1% skimmed milk in PBS with 0.05%-TWEEN®-20. Microcapsules were added to the leaf discs and settling of microcapsules and binding of targeting agents allowed for 1 hour. Unbound microcapsules were removed by washing three to five times with PBS with 0.05%-TWEEN®-20.
Leaf discs with Uvitex microcapsules were analyzed for bound microcapsules on a macrozoom microscope system (Nikon). Microcapsules were counted using Volocity image analysis software (Perkin Elmer). A DAPI filter was used to visualize Uvitex microcapsules. […]
A titration experiment was performed to investigate what dilution factor of microcapsules with specific VHH corresponds to an application of microcapsules to which no VHH were coupled to obtain similar amounts of microcapsules after an identical treatment. Two-fold serial dilutions of microcapsules were prepared and leaf disc binding was analyzed on potato leaf discs for these dilution series. […]

gum arabic = experiment: VHH binding to gum arabic in ELISA; set-up: species or system acacia tree
Description: Titration of VHH antibody fragments was performed on ELISA plates (Maxisorp, Nunc) coated with 100 μl per well 100 μg/ml gum arabic in 50 mM carbonate pH9.6. Plates were coated at 4° C. overnight and coating was continued at room temperature for 1 hour on the next day. Plates were washed three times with PBS/0.05%-TWEEN®-20 and blocked with 5% skimmed milk in PBS for 1 hour. Four-fold serial dilutions of purified VHH antibody fragments were prepared in 1% MPBS/0.05%-TWEEN®-20 in polypropylene 96-well plates. Antibody concentrations ranged from 3 μg/ml to 12 ng/ml. Antibody dilutions were transferred to the gum arabic-coated plates and VHH antibody fragments were allowed to bind for 1 hour at room temperature. Bound VHH were detected with sequential incubations with monoclonal mouse anti-histidine antibodies (Abd Serotec) and rabbit anti-mouse IgG whole molecule antibodies conjugated with alkaline phosphatase (RaM/AP) (Sigma) in 1% MPBS/0.05%-TWEEN®-20. Unbound antibodies were removed by washing three times with PBS/0.05%-TWEEN®-20 after each antibody incubation. The plates were washed an additional two times with PBS and 100 μl pNPP disodium hexahydrate substrate (Sigma) was added to each well. The absorbance at 405 nm was measured and plotted as function of antibody concentration (see Table 1).

Molecule	microcapsule counts (microcapsules) (potato lectin (Sigma) [1])	microcapsule counts (microcapsules) (potato lectin (Sigma) [2])	microcapsule counts (microcapsules) (potato lectin (Sigma) [3])	microcapsule counts (microcapsules) (potato lectin (Sigma) [4])	microcapsule counts (microcapsules) (potato lectin (Sigma) [5])	increase of amounts of lambda cyhalothrin in wells coated with antigen ([6]; compared to blank microcapsules) [fold]	increase of amounts of lambda cyhalothrin in wells coated with antigen ([6]; over blank wells not coated with antigen) [fold]	counts of bound microcapsules (microcapsules) (unrelated antigens)	binding and retaining of Uvitex microcapsules to leaf surfaces (potato leaf discs)	absorbance at 405 nm (gum arabic; Table 2, gum arabic coat, VHH 3 μg/ml)	absorbance at 405 nm (gum arabic; [VHH] 0.0117188 μg/ml (0.78125 nM), gum arabic 100 μg/ml)	absorbance at 405 nm (gum arabic; [VHH] 0.04688 μg/ml (3.125 nM), gum arabic 100 μg/ml)	absorbance at 405 nm (gum arabic; [VHH] 0.1875 μg/ml (12.5 nM), gum arabic 100 μg/ml)	absorbance at 405 nm (gum arabic; [VHH] 0.75 μg/ml (50 nM), gum arabic 100 μg/ml)	absorbance at 405 nm (gum arabic; [VHH] 3 μg/ml (200 nM), gum arabic 100 μg/ml)	absorbance at 405 nm (gum arabic; [VHH] 3 μg/ml (200 nM), no gum arabic coat (−))
Control VHH	787	215	46	150	903											
VHH 3E6 (VHH, also called Monovalent VHH 3E6) VHH: QVQLQESGGGLVQPGGTLSLSCAASGFNVRWYGMGWFRQAPGKEREGVACISALQETTAYADSVKGRFTLSRDNPKNTLSLQMNNLQPEDTGVYYCATTDCDDSSRMTYTSYLGQGTQVTVSS						23	27	601	capable of binding and retaining microcapsules specifically to leaf surfaces	0.882	0.392	0.905	1.518	1.904	2.154	0.090

From US20130217572A1, “SPECIFIC DELIVERY OF AGROCHEMICALS” (VRIJE UNIVERSITEIT BRUSSEL, priority 2010, published 2013)
